According to a protein production outcome set (Wang et al. 2014):

Assay: label from the status in PepcDB records

Sequence | protein production
MENEGASTVCPLDPGSPLFLSGDGFEPVGVLFPHAVFHFPSKEKKEAYDFMDKVVDKHRRLCDERQRLGLKNESEVDVKNEGSTSNPEPAVKEPVPEPLP | not failed
LLPKYNILTEDQVQKIHENTMKILEEIGIEFEYEPALEVFRREGQKVEGKRVYLTREFVESKLKSAPAEFTLHARNPENNVVIGGDNIVFMPGYGAPFIYELDGSRRKTTLQDYENFAKLAGASKNMHLSGGTMAEPQDIPDGVRHLQMLYSSIKNSDKCFMGSAEGKERAEDSVEIAAILFGGKDVIKEKPVLVSLINSLTPLKYDERMLGALMAYAEAGQAVIIASLVMAGSTGPASLAGTLSLQNAEVLAGISLAQSINPGTPVIYGSTSALSDMRSGSLSIGSPECALFISASAQLARFYGVPSRSGGGLNDSKTVDAQAGYESMMTLMAANLTGVNFVLHTAGILQYFMAMSYEKFIMDDEIAGMLLHYMKGYTFDEDGMAFDVIEKVGPGGHFLTQKHTRKNHKREFYTPTLSDRSAYDTWAKEKLETKQRAHARWQQILANYVPPALDPEIDAKLQAFIAQRGKEVGEE | not failed
MTTPSHLSDRYELGEILGFGGMSEVHLARDLRLHRDVAVKVLRADLARDPSFYLRFRREAQNAAALNHPAIVAVYDTGEAETPAGPLPYIVMEYVDGVTLRDIVHTEGPMTPKRAIEVIADACQALNFSHQNGIIHRDVKPANIMISATNAVKVMDFGIARAIADSGNSVTQTAAVIGTAQYLSPEQARGDSVDARSDVYSLGCVLYEVLTGEPPFTGDSPVSVAYQHVREDPIPPSARHEGLSADLDAVVLKALAKNPENRYQTAAEMRADLVRVHNGEPPEAPKVLTDAERTSLLSSAAGNLSGPRTDPLPRQDLDDTDRDRSIGSVGRWVAVVAVLAVLTVVVTIAINTFGGITRDVQVPDVRGQSSADAIATLQNRGFKIRTLQKPDSTIPPDHVIGTDPAANTSVSAGDEITVNVSTGPEQREIPDVSTLTYAEAVKKLTAAGFGRFKQANSPSTPELVGKVIGTNPPANQTSAITNVVIIIVGSGPATKDIPDVAGQTVDVAQKNLNVYGFTKFSQASVDSPRPAGEVTGTNPPAGTTVPVDSVIELQVSKGNQFVMPDLSGMFWVDAEPRLRALGWTGMLDKGADVDAGGSQHNRVVYQNPPAGTGVNRDGIITLRFGQ | failed
NEVDDMDTSDTQWGWFYLAECGKWHMFQPDTNSQCSVSSEDIEKSFKTNPCGSISFTTSKFSYKIDFAEMKQMNLTTGKQRLIKRAPFS | not failed
SELSQLLNEIRANYEKILTRNQIETVLSTRIQLEEDISKKMDKDEEALKAAQAELKEARRQWHHLQVEIESLHAVERGLENSLHASEQHYQMQLQDLETVIEGLEKELQEVRRGIEKQLQEHEMLLNTKMRLEQEIATYRHLLEKEEIRYYGCIQGGKKDKKPTTSRVGFVLPSAIINEISFTTKVPQKYENENVETVTKQAILNGSIVKESTEAHGTIQTEKVDEVIKEWEGSFFKDNPRLRKKSVSLRFDLHLAATDEGCLETKQDNLPDIEVRLIMRRSCSIPSIKPPSTAN | not failed
AIASNSLEEKKSYFSNRVNLLVENIGTSLRDLLRQGADSSDWNEYAGNLELHLSIENISRDLEELLTLSFEIEVLTLEGNLPQVMSETDGVEAAIQKRIAELNFALEQTGVFSGFSFLYDVNFQQIVEKATRALQKVSDYTPWVLDDGHNM | failed
MALRLAVPAMTAQLPPGVTHVDCSTLDMPNAYVVVDDNETTLVDAGWPGDEQTVRDGLHTAGVEPGDIDRVLVTHYDADHVGTLARLTPALDAPVYVHERDAPYVAGDRLPPWTARNGIGALHRLYYRRLDLPDLPIRAVVDGDDIGGFHAYHTPGHTPGHVAYVHEDLSVAFLGDLAYGLGDRLKPTGWLTSSDAAAVESSVRSLCRRAPAFEYACPGHGPPLPDGDDRLAEALP | failed
MSLDKGDKAPDFALPGKTGVVKLSDKTGSVVYLDFWASWCGPCRQSFPWMNQMQAKYKAKGFQVVAVNLDAKTGDAMKFLAQVPAEFTVAFDPKGQTPRLYGVKGMPTSFLIDRNGKVLLQHVGFRPADKEALEQQILAALGGNEGHHHHHH | not failed
MIDTLKNIKVKDVMTKNVITAKRHEGVVEAFEKMLKYKISSLPVIDDENKVIGIVTTTDIGYNLIRDKYTLETTIGDVMTKDVITIHEDASILEAIKKMDISGKKEEIINQLPVVDKNNKLVGIISDGDIIRTISKII | not failed
MSTEQLLVLIAQNDIKDDIVDTLIELEFLSGFSLGNICGFSREHSHFNIKEQVEGYREFCKFEIMHPAAQQAALLTALALVCKHNPCRYWIMPIYQNGTLS | not failed
MDTWKVGPVELKSRLILGSGKYEDFGVMREAIAAAKAEVVTVSVRRVELKAPGHVGLLEALEGVRLLPNTAGARTAEEAVRLARLGRLLTGERWVKLEVIPDPTYLLPDPLETLKAAERLIEEDFLVLPYMGPDLVLAKRLAALGTATVMPLAAPIGSGWGVRTRALLELFAREKASLPPVVVDAGLGLPSHAAEVMELGLDAVLVNTAIAEAQDPPAMAEAFRLAVEAGRKAYLAGPMRPREAASPSSPVEGVPFTPTGPRPGRGPQ | not failed
MERKLSNGCVASKSEELAKQQLPPPPDQDQEQPALQPPKVNGLKENQAVKHNNNNNTNNNNNKNGLVNGNAKKDELKAAEDHDTQSKEDDDPKEKVVKPKLNGNLIKNPIDKTAETQDKIAQPAPEPPLPKRPKLETPTSNEVTKANGQLVQQQLESRESEEEPQHVDE | failed
MNKKIFYITILLHLPNLLFSYSTKYDIEVKMSAFVMSLAIIVISSISIGNLVAKIGIPKVIGQITAGIILSPNAFGKIQIPLLFPLGITQIGENYLINEKIFAISTIASIILLFTAGLETDLKLFIKFLPRGGIIGITEVVGTFTSFVLMASIIFNVPLISPTSLFIGIIGTPTSAGIAASILSAKKKMSTSEGVTIISTSIIDDVLSMLMLTSVITISRSISDLDIASSIKAIVQNIVIWLCLTFSLIYISETLSRLLKKLNSVTLATVITLSLALTIASIFQNLGMSFVVGAYVFGLAMSKTDIVYVIQDKLTIFERFFIPIFFTSIGLMSDINEILSKEVLILGLAISAIAIITKSIFCFIPALFLGFNKLGALKIATGMVPRGEVSLIMANVALSSGFISQKIFGIIIIMVFLPTIIATPIINFLFKINKSGLKKELPIDQNTHICVSFEYDNLAKILIWDFKNELRKEGFFTQQIKNDSSQYINARKNNISFSIKREGSKITFECPNNHLIIIQDLFRETILNLEKITKEVETVSLRAKKLDYSINYDKILSNINLNKRIKKENIILELKSSNKADVIRELLSVINIEIDKERIFQDLMEREKLITTALKEGFAIPHLKTNLISKIHIAIGISHEGIDFNALDKNLSHVFILILCPAKDYVSYPRILASVVGKVDLYKKEILNAKTDKEIYNIIVS | failed
MEEERRDDYKFLRIQDAFKALHLHVNLIGVIVELGFSNGSDCSCTLKIVDPWYSGSGLPVKFVARTIRDLPRVESIGDIILLSRVKIVLINRKITALCNETTSSSFALFNGKHSVDSIPYQSSPKFLMREQDKNFLSNLREWMITYKFEDGS | not failed
RSMEDVRLHRKEKGDAYSFNWSLKIEADFQLPFDPTHTSMEGLNLNLDQEPQVLAANLRKAFSGIVAGNVKAEGIREIECKGPFSIHGDPVLMKKLDKLLQDFVEQHRMKLPGGSDYEPCYRIAHP | failed
MNAPTVFESFSPDSGGVKTQLIIRGQNFGTDTAYLKVTVNNKRAAIVGVADDVIYAIVPARADTGYVRLFVGKDDNVEEYASQTKFIYQFKRNVTTLMGRQGQSGRDDGPYAECKLQRPWFALADKDGALFFIDEGRGQNKNGALRRAQEGWVETLVQNSSGPFQSPTCLAFNPKQDTLYISNMSYGSDIKTSFNILYVTREGGFMDVKGLCKFEKAETQGLAVHPQTGEIFFCNKSGGYIYRFNGPDYEDYEPLFQINRADKIDTRMVFNPEGTALFVVVCNRHCIYKVPYNALTHTFGEPELFAGGWDESGYVNGSGVTARFDNPRQPAFDQDGNMFVPEYGRHTIRKITPTGEVSLYAGLPGQAGFTDGLPEKARFNKPECVTVYLDNSLYVADRDNHLIRRVTVELEHHHHHH | failed
